In publication doi:10.1101/544353:
Where “and” joins values, the source holds several entries; their conditions need not be identical. Equal values may be shown once. Read-outs that look alike come from different tables or passages of the source.

Experiments:
[1] = molecular target: Photosystem I (PSI) of Chroococcidiopsis sp. PCC 6712 (Chroococcidiopsis sp. PCC 6712 (endogenous)); assay: native gel or EMSA
[2] = molecular target: Photosystem I (PSI) of Chroococcidiopsis sp. PCC 6712 (Chroococcidiopsis sp. PCC 6712 (endogenous)); assay: transmission electron microscopy with single particle analysis
[3] = molecular target: Photosystem I (PSI) of Chroococcidiopsis sp. PCC 7434 (Chroococcidiopsis sp. PCC 7434 (endogenous)); assay: native gel or EMSA
[4] = molecular target: Photosystem I (PSI) of Chroococcidiopsis sp. TS-821 (Chroococcidiopsis sp. TS-821 (endogenous)); assay: native gel or EMSA
[5] = molecular target: Photosystem I (PSI) of Chroococcidiopsis sp. TS-821 (Chroococcidiopsis sp. TS-821 (endogenous)); assay: sucrose density gradient ultracentrifugation
[6] = molecular target: Photosystem I (PSI) of Chroococcidiopsis sp. TS-821 (Chroococcidiopsis sp. TS-821 (endogenous)); assay: native gel or EMSA; remark: listed apart in the source
[7] = molecular target: Photosystem I (PSI) of Chroococcidiopsis thermalis PCC 7203 (Chroococcidiopsis thermalis PCC 7203 (endogenous)); assay: native gel or EMSA
[8] = molecular target: Photosystem I (PSI) of Fischerella muscicola PCC 7414 (Fischerella muscicola PCC 7414 (endogenous)); assay: native gel or EMSA
[9] = molecular target: Photosystem I (PSI) of Fischerella muscicola PCC 7414 (Fischerella muscicola PCC 7414 (endogenous)); assay: transmission electron microscopy with single particle analysis
[10] = molecular target: Photosystem I (PSI) of Fischerella muscicola PCC 7414 (Fischerella muscicola PCC 7414 (endogenous)); assay: native gel or EMSA; remark: listed apart in the source
[11] = molecular target: Photosystem I (PSI) of Gloeocapsa sp. PCC 7428 (Gloeocapsa sp. PCC 7428 (endogenous)); assay: native gel or EMSA
[12] = molecular target: Photosystem I (PSI) of Gloeocapsa sp. PCC 7428 (Gloeocapsa sp. PCC 7428 (endogenous)); assay: native gel or EMSA; remark: listed apart in the source
[13] = molecular target: Photosystem I (PSI) of Leptolyngbya sp. PCC 7124 (Leptolyngbya sp. PCC 7124 (endogenous)); assay: native gel or EMSA
[14] = molecular target: Photosystem I (PSI) of Microcystis sp. PCC 7806 (Microcystis sp. PCC 7806 (endogenous)); assay: native gel or EMSA
[15] = molecular target: Photosystem I (PSI) of Nodularia PCC 73104 (Nodularia PCC 73104 (endogenous)); assay: native gel or EMSA
[16] = molecular target: Photosystem I (PSI) of Nostoc sp. PCC 7120 (Nostoc sp. PCC 7120 (endogenous)); assay: native gel or EMSA
[17] = molecular target: Photosystem I (PSI) of Nostoc sp. PCC 9335 (Nostoc sp. PCC 9335 (endogenous)); assay: native gel or EMSA
[18] = molecular target: Photosystem I (PSI) of Planktothrix paucivesiculata PCC 8926 (Planktothrix paucivesiculata PCC 8926 (endogenous)); assay: native gel or EMSA
[19] = molecular target: Photosystem I (PSI) of Pseudanabaena sp. B SP48 (Pseudanabaena sp. B SP48 (endogenous)); assay: native gel or EMSA
[20] = molecular target: Photosystem I (PSI) of Synechocystis sp. PCC 6803, wild type (Synechocystis sp. PCC 6803 (endogenous)) (UniProt P37277); assay: native gel or EMSA
[21] = molecular target: Photosystem I (PSI) of Synechocystis sp. PCC 7509 (Synechocystis sp. PCC 7509 (endogenous)); assay: native gel or EMSA
[22] = molecular target: Photosystem I (PSI) of Thermosynechococcus elongatus BP-1 (Thermosynechococcus elongatus BP-1 (endogenous)); assay: native gel or EMSA

How did the stoichiometry N [1] turn out when “Photosystem I (PSI) of Chroococcidiopsis sp. PCC 6712 (complex)” was run?
Its stoichiometry N is 3.

What about the stoichiometry N [2] of the same substance?
Its stoichiometry N is 3.

“Photosystem I (PSI) of Chroococcidiopsis sp. PCC 7434 (complex)” was tested. Which stoichiometry N [3] did it give?
The stoichiometry N was 2.

With “Photosystem I (PSI) of Chroococcidiopsis sp. TS-821 (complex)” as the substance, how does the stoichiometry N [4] read?
Its stoichiometry N is 4 and 2.

What about the stoichiometry N [5] of the same substance?
The stoichiometry N was 2.

What about the stoichiometry N [6] of the same substance?
The stoichiometry N was 3.

Which stoichiometry N [7] does the source give for “Photosystem I (PSI) of Chroococcidiopsis thermalis PCC 7203 (complex)” here?
Its stoichiometry N is 2.

For “Photosystem I (PSI) of Fischerella muscicola PCC 7414 (complex)”, which stoichiometry N [8] is on record?
The stoichiometry N was 4.

What about the stoichiometry N [9] of the same substance?
Its stoichiometry N is 4.

What about the stoichiometry N [10] of the same substance?
Its stoichiometry N is 3.

For “Photosystem I (PSI) of Gloeocapsa sp. PCC 7428 (complex)”, which stoichiometry N [11] is on record?
The stoichiometry N was 4 and 2.

What about the stoichiometry N [12] of the same substance?
Its stoichiometry N is 3.

How did the stoichiometry N [13] turn out when “Photosystem I (PSI) of Leptolyngbya sp. PCC 7124 (complex)” was run?
The stoichiometry N was 2.

Which stoichiometry N [14] does the source give for “Photosystem I (PSI) of Microcystis sp. PCC 7806 (complex)” here?
Its stoichiometry N is 2 and 3.

For “Photosystem I (PSI) of Nodularia PCC 73104 (complex)”, which stoichiometry N [15] is on record?
Its stoichiometry N is 4.

How did the stoichiometry N [16] turn out when “Photosystem I (PSI) of Nostoc sp. PCC 7120 (complex)” was run?
The stoichiometry N was 4.

How did the stoichiometry N [17] turn out when “Photosystem I (PSI) of Nostoc sp. PCC 9335 (complex)” was run?
Its stoichiometry N is 3 and 2.

How did the stoichiometry N [18] turn out when “Photosystem I (PSI) of Planktothrix paucivesiculata PCC 8926 (complex)” was run?
The stoichiometry N was 3.

For “Photosystem I (PSI) of Pseudanabaena sp. B SP48 (complex)”, which stoichiometry N [19] is on record?
Its stoichiometry N is 3.

How did the stoichiometry N [20] turn out when “Photosystem I (PSI) of Synechocystis sp. PCC 6803, wild type (from UniProt P37277 1-157) (complex)” was run?
Its stoichiometry N is 3.

“Photosystem I (PSI) of Synechocystis sp. PCC 7509 (complex)” was tested. Which stoichiometry N [21] did it give?
The stoichiometry N was 4 and 2.

For “Photosystem I (PSI) of Thermosynechococcus elongatus BP-1 (complex)”, which stoichiometry N [22] is on record?
Its stoichiometry N is 3.
